{"source": "paper PMC10917059", "about": "“RhoU forms homo-oligomers to regulate cellular responses” (Journal of Cell Science, 2024)", "proteins": {"B1": {"name": "Myc–RhoU (natural protein)", "chain": "not shown", "notes": "vector a gift from Pontus Aspenström; also called pRK5-myc-RhoU; full-length RhoU; source: COS7, transfected, in lysate; not shown: Myc, N-terminal, kept"}}, "molecular_target": "the molecule itself", "assay": "cross-linking; lysates of transfected COS7 cells in 20 mM HEPES pH 7.2, 1% Triton X-100, incubated with DSS (0.25 mM in the methods; increasing concentrations in the results) or DMSO for 30 min at 4°C; anti-Myc blot", "data": [{"protein": "B1", "values": [{"measurement": "stoichiometry N", "result": 2}]}]}
